The text below walks through data of patent US20230212239A1, “INHIBITORS OF CBL AUTOINHIBITION AND RELATED METHODS” (THE HOSPITAL FOR SICK CHILDREN, priority 2020, published 2023).

For series [1], the target named is T1, phosphorylated CBL (pCBL) (Homo sapiens, UniProt P22681).
T1 construct: GST (N, cleaved yes); made in house
T1 sequence (P22681 2-436): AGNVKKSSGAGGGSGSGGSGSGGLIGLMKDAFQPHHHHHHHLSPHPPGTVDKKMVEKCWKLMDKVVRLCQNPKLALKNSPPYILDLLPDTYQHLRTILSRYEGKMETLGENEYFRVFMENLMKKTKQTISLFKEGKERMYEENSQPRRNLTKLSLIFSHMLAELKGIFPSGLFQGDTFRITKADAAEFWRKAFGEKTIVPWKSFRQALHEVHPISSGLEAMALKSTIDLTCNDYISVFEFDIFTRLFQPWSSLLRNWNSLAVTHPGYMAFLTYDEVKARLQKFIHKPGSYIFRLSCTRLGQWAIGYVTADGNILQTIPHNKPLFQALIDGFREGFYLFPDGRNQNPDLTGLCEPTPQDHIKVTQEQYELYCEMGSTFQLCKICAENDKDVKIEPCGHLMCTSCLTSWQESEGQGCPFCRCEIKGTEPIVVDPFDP
Description: In vitro ubiquitination assay, anti-ubiquitin immunoblot, phosphorylated CBL. Format: biochemical. The note with it: added to phosphorylated CBL. From the text:
(§1) Given that binding of SLAP2 and the LHR-RING would be mutually exclusive (FIG. 8C), we reasoned that binding of SLAP2 to CBL could displace the LHR-RING, thereby promoting the catalytically competent conformation. To test this hypothesis, an in vitro ubiquitination assay in which E3 ligase activity is detected by a smear at high molecular weight on an anti-ubiquitin (Ub) immunoblot was employed. […] To further compare and quantify CBL ubiquitin ligase activity, a chemiluminescence based assay which measures the total amount of polyubiquitylated products formed in an in vitro reaction was used. In this assay, production of polyubiquitylated proteins increased upon addition of SLAP2 or pSLAP2 to CBL, compared to CBL alone (FIG. 9C and FIG. 10A).
In vitro ubiquitination reactions were prepared with 20 pmol of CBL or pCBL and 60 pmol of hSLAP2 or phosphorylated hSLAP2 (pSLAP2) for both WT and mutants. Reagents were thawed and reactions prepared on ice. […]

The target in series [2] is T2, CBL TKBD-LHR-RING (Homo sapiens, UniProt P22681).
T2 construct: GST (N, cleaved yes); made in house; host or cells: E. coli BL-21
T2 sequence (P22681 2-436): T1 sequence (P22681 2-436)
Briefly: Chemiluminescence based E3LITE assay of total polyubiquitylated products. In kind it is biochemical. The note with it: added to CBL, compared to CBL alone.
From the text: as §1
Ubiquitination reactions were set up as above (25 µL total volume) in triplicate and diluted with reaction buffer after completion (1:40 for pCBL, 1:15 for all other reactions). […] Wells were washed four times with PBS-T and 25 µL of prepared Immobilon Western Chemiluminescent HRP Substrate (Millipore #P90719) added to each well immediately prior to the plate being read on a Synergy Neo2 Plate Reader (BioTek Instruments). […] Standard deviation of the reaction averages was calculated and used as a measure of error. Each reaction set was analyzed at least twice with fresh protein purifications.

In series [3] the target is T3, CBL (47-357) S226E (UniProt P22681 47-357).
T3 construct: range 47-357; Point mutant within Duet-His-Δlinker-hSLAP2-CBL; also called S226E (CBL mutant)
T3 sequence (looked up): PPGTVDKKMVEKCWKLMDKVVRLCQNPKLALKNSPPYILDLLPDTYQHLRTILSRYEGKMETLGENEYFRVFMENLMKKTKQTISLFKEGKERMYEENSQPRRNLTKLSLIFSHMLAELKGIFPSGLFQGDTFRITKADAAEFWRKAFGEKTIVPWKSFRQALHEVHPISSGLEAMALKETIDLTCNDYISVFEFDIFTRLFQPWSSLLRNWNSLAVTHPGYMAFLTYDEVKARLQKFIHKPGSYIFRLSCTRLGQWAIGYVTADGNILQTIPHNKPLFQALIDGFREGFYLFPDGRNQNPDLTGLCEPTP
Description: Ni-NTA co-purification from Duet co-expression, high salt (0.5 M NaCl), Coomassie SDS-PAGE. The method, then:
Cell pellets were resuspended in either high or low salt (as for high salt except 25 mM HEPEs pH 7.5, 150 mM NaCl) lysis buffer and purified as above on Ni-NTA agarose (Qiagen) with wash buffer (25 mM HEPEs pH 7.5, 150 mM NaCl, 2% glycerol, 20 mM imidazole, 10 mM βME). Bead slurry was mixed with SDS 2X loading buffer (125 mM Tris pH 6.8, 4% SDS, 20% glycerol, 0.715 M βME, bromophenol blue), boiled, and analyzed by 10 or 12.5% SDS-PAGE, stained with Coomassie blue.

Entries after “also recorded” stand apart in the source; their conditions may differ.

B1: Trx-His(6)-Δlinker-hSLAP2 (human SLAP2 29-261) (other)
chain: EAERSKATAVALGSFPAGGPAELSLRLGEPLTIVSEDGDWWTVLSEVSGREYNIPSVHVAKVSHGWLYEGLSREKAEELLLLPGNPGGAFLIRESQTRRGSYSLSVRLSRPASWDRIRHYRIHCLDNGWLYISPRLTFPSLQALVDHYSELADDICCLLKEPCVLQRAGPLPGKDIPLPVTVQRTPLNWKELDSSLLFSEAATGEESLLSEGLRESLSFYISLNDEAVSLDDA
notes: also called Trx-His-SLAP2; SLAP2 WT; not shown: N-terminal thioredoxin (Trx)-His(6)-TEV-site tag and linker of the modified pET32a (Δlinker version)
On to B1, for which, in series [1], the “ubiquitination activity of active pCBL” value is recorded as “Neither addition of SLAP2 nor pSLAP2 to active pCBL appeared to further enhance or diminish ubiquitination activity”. Besides, the “production of polyubiquitylated proteins / CBL ligase activity” value in series [2] was “increased”. Besides, the binding result in series [3] was “no binding”.

B2: pSLAP2: tyrosine phosphorylated SLAP2 expressed in TKB1 cells (protein, UniProt Q9H6Q3 2-261, looked up)
Src-like-adapter 2: GSLPSRRKSLPSPSLSSSVQGQGPVTMEAERSKATAVALGSFPAGGPAELSLRLGEPLTIVSEDGDWWTVLSEVSGREYNIPSVHVAKVSHGWLYEGLSREKAEELLLLPGNPGGAFLIRESQTRRGSYSLSVRLSRPASWDRIRHYRIHCLDNGWLYISPRLTFPSLQALVDHYSELADDICCLLKEPCVLQRAGPLPGKDIPLPVTVQRTPLNWKELDSSLLFSEAATGEESLLSEGLRESLSFYISLNDEAVSLDDA
modifications: tyrosine phosphorylated
notes: tyrosine phosphorylated SLAP2 expressed in TKB1 cells
For the molecule B2, the “ubiquitination activity of active pCBL” value in series [1] was “Neither addition of SLAP2 nor pSLAP2 to active pCBL appeared to further enhance or diminish ubiquitination activity”. Moreover, the “production of polyubiquitylated proteins / CBL ligase activity” value in series [2] is on record as “increased; also recorded: stimulated CBL ligase activity to a greater extent than SLAP2”.
